Laboratory results: PMC4357697, “Sequence-specific cleavage of dsRNA by Mini-III RNase”

Key:
[1] = target: T1, BsMiniIII Δ5 (Bacillus subtilis ATCC 23857, UniProt O31418 1-143, del91-95); experiment: filter binding; 1 mM Ca2+; affinity not affected vs wild type; Filter binding: 10 mM Tris-HCl pH 7.5, 5 mM NaCl, 1 mM CaCl2, room temperature, 1 h; 0.01 µM labeled 30 bp dsRNA, 0.1-4 µM enzyme; details: protein: recombinant; tags: C-terminal His6; chain copies: 2; label: 32P end label (33P in Methods for the substrate); blunt
T1 sequence: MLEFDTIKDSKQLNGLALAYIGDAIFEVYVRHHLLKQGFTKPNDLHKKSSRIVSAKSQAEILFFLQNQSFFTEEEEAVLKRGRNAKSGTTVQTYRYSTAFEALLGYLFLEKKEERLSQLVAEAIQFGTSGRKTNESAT

[2] = target: T2, BsMiniIII Δ10 (Bacillus subtilis ATCC 23857, UniProt O31418 1-143, del86-95); experiment: as above; details: protein: recombinant; tags: C-terminal His6; chain copies: 2; label: 32P end label (33P in Methods for the substrate); blunt
T2 sequence: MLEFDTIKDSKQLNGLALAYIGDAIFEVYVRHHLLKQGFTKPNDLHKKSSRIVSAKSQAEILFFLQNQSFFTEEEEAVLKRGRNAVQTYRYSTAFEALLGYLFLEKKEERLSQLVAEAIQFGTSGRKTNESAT

B1: 30 bp dsRNA (30f/30r) (dsRNA)
RNA 1: CGAUACCGUCGACCUCGAGGGGGGGCCCGG
RNA 2: CCGGGCCCCCCCUCGAGGUCGACGGUAUCG
B1: binds [1]; binds [2].
